Values of other authors, collected in paper PMC8174820.

Tested on: Tyr134
Experiment: chemical modification

Cellular retinoic acid binding protein 2 (CRABP2) (Homo sapiens (inferred; the review discusses the human proteome but does not name the species for CRABP2))
pKa: ∼7.6
